Assay results from patent US7186551B1, “3′-phosphoadenosine -5′-phosphosulfate synthetase 2 (PAPSS2) sequence variants” (Mayo Foundation for Medical Education and Research, priority 2001, dated 2007).

Tests used:
PAPSS2 [1] = molecular target: T1, PAPSS2 (Homo sapiens, UniProt O95340); experiment: PAPSS activity of cells transfected with wild type PAPSS2 construct versus empty vector / endogenous activity; assay type: biochemical; conditions: loxP-modified p91023(b) vector, COS-1 cells
T1 construct: the wild-type full-length open reading frame (ORF) of the human PAPSS2 cDNA; made in house; host or cells: COS-1 or HepG2 cells, transient transfection; cytosol not purified
T1 sequence (O95340 1-614 R426C): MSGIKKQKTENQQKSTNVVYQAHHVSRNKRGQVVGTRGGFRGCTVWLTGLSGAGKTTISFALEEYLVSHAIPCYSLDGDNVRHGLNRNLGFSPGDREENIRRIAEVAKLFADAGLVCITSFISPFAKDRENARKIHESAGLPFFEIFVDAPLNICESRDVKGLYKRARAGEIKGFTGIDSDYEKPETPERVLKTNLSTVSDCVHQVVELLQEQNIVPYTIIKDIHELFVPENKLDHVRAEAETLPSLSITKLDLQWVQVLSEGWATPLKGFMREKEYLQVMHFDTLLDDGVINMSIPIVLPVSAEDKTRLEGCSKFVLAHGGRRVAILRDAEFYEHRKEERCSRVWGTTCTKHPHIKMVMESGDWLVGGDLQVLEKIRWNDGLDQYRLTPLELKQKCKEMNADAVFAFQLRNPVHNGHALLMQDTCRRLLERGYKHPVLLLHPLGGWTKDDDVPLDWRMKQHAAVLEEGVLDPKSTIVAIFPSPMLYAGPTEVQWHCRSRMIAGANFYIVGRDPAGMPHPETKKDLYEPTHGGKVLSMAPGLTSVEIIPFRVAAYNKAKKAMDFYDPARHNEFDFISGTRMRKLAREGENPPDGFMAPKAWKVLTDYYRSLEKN
Method: Initial expression studies were performed with the commercially available pcDNA4/HisMax-E (pcDNA4) acceptor vector (Invitrogen). Specifically, the pUni donor vector, with and without the PAPSS2 cDNA insert, was combined with the pcDNA4 acceptor vector by Cre recombinase through the loxP sites present in both donor and acceptor vectors. The resultant fusion constructs (pUni/pcDNA4) then were used to transfect either COS-1 or HepG2 cells. However, the construct with the wild type PAPSS2 cDNA insert expressed only about 2-fold higher PAPSS activity in both COS-1 and HepG2 cells than did the control “empty” pUni-pcDNA4. This low signal/noise ratio was due in part to the high levels of endogenous PAPSS activity in mammalian cells. Obviously, this situation would have made it difficult to study the functional significance of PAPSS2 non-synonymous cSNPs.
The loxP site required for Cre recombinase-mediated recombination thus was adapted for cloning into the p91023(b) cloning site so a recombination approach could be used to clone PAPSS2 cDNAs into this vector. A 133 base pair pcDNA4 DNA segment (nucleotides 1080–1212) containing the N-terminal His-tag and the loxP site was amplified by PCR, and this amplicon was ligated into the EcoRI site of p91023(b). As a result, the loxP-modified p91023(b) acceptor vector was also able to add an N-terminal His-tag to the expressed protein. […]

PAPSS2 [2] = experiment: PAPSS2 enzyme activity, coupled radiochemical assay (PAPS generation then SULT1E1-catalyzed sulfation of [3H]estradiol) with COS-1 expressed recombinant allozymes; assay type: biochemical, human; conditions: His-tagged recombinant allozyme, loxP-modified p91023(b) vector, COS-1 cells, corrected for transfection efficiency
From the text: Variant alleles of the four non-synonymous PAPSS2 cSNPs observed during the resequencing experiments were created using the QuickChange Site-Directed Mutagenesis Kit (Stratagene, La Jolla, Calif.), with wild type PAPSS2 cDNA in pUni as template. The sequence of the pUni insert was confirmed by completely sequencing both strands before recombination with the loxP-modified p91023(b) acceptor vector. pUni donor vectors that contained wild type and variant PAPSS2 cDNAs, as well as empty pUni, then were combined with the loxP-modified p91023(b) acceptor vector to generate the final expression constructs. In all cases, the fusion junctions of resultant expression constructs were sequenced to confirm that the construct was a dimer consisting of only a single donor and a single acceptor vector. These expression constructs were used to transfect COS-1 cells using TransFast™ reagent (Promega) with a 1:1 charge ratio. pSV-β-galactosidase (Promega) was co-transfected with each construct as an internal control to correct for transfection efficiency. Transfected COS-1 cells were harvested after 48 hours and were homogenized with a Polytron homogenizer (Brinkmann Instruments, Westbury, N.Y.) in 25 mM potassium phosphate buffer, pH 7.8, containing 1 mM dithiothreitol (DTT) and 1 mM EDTA. The homogenates were centrifuged at 15,000 g for 15 minutes, and the resultant supernatant preparations were used to perform enzyme assays, substrate kinetic studies and Western blot analyses. In some cases, aliquots of these cytosol preparations were stored at −80° C. prior to assay.
PAPSS2 Enzyme Activity: PAPSS2 activity was measured with a coupled radiochemical assay. See Xu et al., 2001, supra. Briefly, PAPS is generated from ATP and Na2SO4 in a PAPSS2-catalyzed reaction. The generated PAPS is then used as a substrate for the SULT1E1-catalyzed sulfate conjugation of [2,4,6,7-^3H]estradiol, a radioactively labeled sulfate acceptor substrate. The cell homogenate preparations of recombinant PAPSS2 allozymes described above were used for the activity studies without any further purification. The protein concentration of each recombinant protein preparation was determined by the dye-binding method of Bradford with bovine serum albumin (BSA) as a standard.
PAPS synthesis was catalyzed by recombinant wild-type PAPSS2 or PAPSS2 allozymes (present in the cell homogenate preparations described above) in the presence of 1 mM ATP, 16 mM Na2SO4, 1 mM MgCl2, and 2 mM DTT in 60 mM glycine-NaOH buffer, pH 8.6. Blank samples included the same quantity of COS-1 cytosol protein from cells that had been transfected with empty expression vector to make it possible to correct for endogenous activity. Reaction mixtures were incubated at 37° C. for 20 minutes, and then terminated by heating at 100° C. for 1 minute. An aliquot from this PAPS-generating reaction was then added to a second, coupled reaction containing recombinant human SULT1E1 isolated from COS-1 cells transfected with a SULT1E1 expression construct (see Aksoy et al., Biochem. Biophys. Res. Commun., 200:1621–1629 (1994)). The coupled reaction also included 27 nM [2,4,6,7-^3H]estradiol, 8 mM DTT and 1.25 mM MgCl2 in 10 mM potassium phosphate buffer, pH 6.5. The second, SULT1E1-catalyzed reactions were incubated at 37° C. for 20 minutes, and then terminated by the addition of KOH, followed by organic solvent extraction performed with chloroform. Radioactivity of the sulfate conjugated [2,4,6,7-^3H]estradiol in the aqueous phase after organic solvent extraction was then measured in a liquid scintillation counter. PAPSS activities of recombinant PAPSS2 allozymes were compared after correction for transfection efficiency by measuring the activity of cotransfected P-galactosidase. β-Galactosidase activity in the COS-1 cell preparations was measured with the β-Galactosidase Assay System (Promega) as described by the manufacturer. […]

- increase in PAPSS activity over basal endogenous activity (PAPSS2 [1]): greater than 7 fold
- % WT activity (PAPSS2 [2]): 100%
B1: wild type: reference human PAPSS2 polypeptide (SEQ ID NO:9, GenBank AF091242), recombinantly expressed in COS-1 cells (protein, listed as Homo sapiens)
chain: T1 sequence (O95340 1-614 R426C)
